# Assay results as given in paper PMC5451212, “RISC-interacting clearing 3’- 5’ exoribonucleases (RICEs) degrade uridylated cleavage fragments to maintain functional RISC in Arabidopsis thaliana” (eLife, 2017).
# Where “and” joins values, the source holds several entries; their conditions need not be identical. Equal values may be shown once.
# T1: 6His-SUMO-RICE1 (A. thaliana, UniProt Q9SF21 1-200)
# T1 construct: RICE1 (At3g11770), A. thaliana; open reading frame in pET28a-SUMO-DC; source: E. coli BL21 (DE3), purified (Ni-NTA); not shown: His6, N-terminal, kept; SUMO, N-terminal, kept
# T1 sequence (looked up): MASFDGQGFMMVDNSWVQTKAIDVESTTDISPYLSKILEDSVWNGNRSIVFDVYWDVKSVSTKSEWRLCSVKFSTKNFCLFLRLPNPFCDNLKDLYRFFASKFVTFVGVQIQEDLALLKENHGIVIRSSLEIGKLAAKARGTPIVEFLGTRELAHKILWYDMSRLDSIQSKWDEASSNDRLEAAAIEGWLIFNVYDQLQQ
# T2: 6His-SUMO-RICE2 (A. thaliana, UniProt Q9FNG3 1-206)
# T2 construct: RICE2 (At5g06450; AtDECP), A. thaliana; open reading frame in pET28a-SUMO-DC; also called AtDECP; source: E. coli BL21 (DE3), purified (Ni-NTA); not shown: His6, N-terminal, kept; SUMO, N-terminal, kept
# T2 sequence (looked up): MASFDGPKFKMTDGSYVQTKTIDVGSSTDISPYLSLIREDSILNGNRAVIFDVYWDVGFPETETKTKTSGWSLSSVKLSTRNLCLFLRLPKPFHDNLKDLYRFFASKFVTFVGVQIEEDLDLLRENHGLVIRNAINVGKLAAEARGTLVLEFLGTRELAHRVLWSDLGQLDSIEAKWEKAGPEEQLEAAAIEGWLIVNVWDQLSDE
# Key:
# 6His-SUMO-RICE1 = target: T1, 6His-SUMO-RICE1; assay: pull-down; His-SUMO baits and MBP-fusion preys purified from E. coli; prey preabsorbed on Ni-NTA resin, then incubated with bait 1 hr at room temperature and captured on Ni-NTA; 50 mM Tris pH 7.5, 150 mM NaCl, 0.2% glycerol, 0.6% Triton X-100, 0.5 mM β-mercaptoethanol; six washes with 300 mM NaCl; blot with anti-MBP; details: both partners purified
# 6His-SUMO-RICE2 = target: T2, 6His-SUMO-RICE2; assay: as above; details: both partners purified
# [1] = target: the molecule itself; assay: SEC; purified proteins after SUMO protease cleavage on Superdex75 (1.6 x 60), 20 mM Tris-HCl pH 7.5, 150 mM NaCl
# [2] = target: the molecule itself; assay: crystal structure; RICE1 at 20 mg/ml, hanging drop at 16°C, ~30% pentaerythritol propoxylate (5/4 PO/OH), 0.2 M KCl, 50 mM HEPES pH 7.5; space group I4(1)22, three molecules in the asymmetric unit
# [3] = target: the molecule itself; assay: SEC; purified RICE1 D114A on Hiload 16/600 Superdex 200 instead of the routinely used Superdex 75
binder,measurement,setting,value
"MBP-AGO10 PAZ (337-474) (domain or fragment, A. thaliana, UniProt Q9XGW1 337-474, looked up, AGO10, A. thaliana, residues 337-474 (PAZ); source: E. coli BL21 (DE3), purified (amylose resin); not shown: MBP, N-terminal, kept) LPVIEFVAQLLGKDVLSKPLSDSDRVKIKKGLRGVKVEVTHRANVRRKYRVAGLTTQPTRELMFPVDENCTMKSVIEYFQEMYGFTIQHTHLPCLQVGNQKKASYLPMEACKIVEGQRYTKRLNEKQITALLKVTCQR",binding result,6His-SUMO-RICE1,binds
same,binding result,6His-SUMO-RICE2,binds
"RICE1, purified recombinant (SUMO tag cleaved) (enzyme, A. thaliana, UniProt Q9SF21 1-200, looked up, RICE1 (At3g11770), A. thaliana; full-length cDNA in pET28a-SUMO (BamHI/SacI); also called wild type RICE1; source: E. coli BL21 (DE3), purified (Ni-NTA, SUMO protease cleavage, SEC); not shown: His6, N-terminal, cleaved; SUMO, N-terminal, cleaved) MASFDGQGFMMVDNSWVQTKAIDVESTTDISPYLSKILEDSVWNGNRSIVFDVYWDVKSVSTKSEWRLCSVKFSTKNFCLFLRLPNPFCDNLKDLYRFFASKFVTFVGVQIQEDLALLKENHGIVIRSSLEIGKLAAKARGTPIVEFLGTRELAHKILWYDMSRLDSIQSKWDEASSNDRLEAAAIEGWLIFNVYDQLQQ",stoichiometry N,[1],~6
same,stoichiometry N,[2],6
"RICE1 D114A, purified recombinant (enzyme, A. thaliana, UniProt Q9SF21 1-200, looked up, RICE1 (At3g11770), A. thaliana; point mutant made on pET28a-SUMO-RICE1; source: E. coli BL21 (DE3), purified (Ni-NTA, SUMO protease cleavage, SEC); not shown: His6, N-terminal, cleaved; SUMO, N-terminal, cleaved) MASFDGQGFMMVDNSWVQTKAIDVESTTDISPYLSKILEDSVWNGNRSIVFDVYWDVKSVSTKSEWRLCSVKFSTKNFCLFLRLPNPFCDNLKDLYRFFASKFVTFVGVQIQEALALLKENHGIVIRSSLEIGKLAAKARGTPIVEFLGTRELAHKILWYDMSRLDSIQSKWDEASSNDRLEAAAIEGWLIFNVYDQLQQ",stoichiometry N,[3],2 and 6
